# Reference: paper PMC8200818, “SPECT/CT Imaging, Biodistribution and Radiation Dosimetry of a ^177Lu-DOTA-Integrin αvβ6 Cystine Knot Peptide in a Pancreatic Cancer Xenograft Model” (Frontiers in Oncology, 2021)
# Test: in vivo
# Settings: female, mouse, iv, 1 MBq, total radioactivity; for tissue uptake at 24 h: 24 h p.i.; for tissue uptake at 24 h / tissue uptake at 48 h / tissue uptake at 72 h / tissue uptake at 192 h: nude mice, Capan-2 xenografts, mean ± SD (4 ≤ n ≤ 5); for tissue uptake at 48 h: 48 h p.i.; for tissue uptake at 72 h: 72 h p.i.; for tissue uptake at 192 h: 192 h p.i.
# Excerpt: For in vivo experiments, at least 8-week-old female athymic NMRI-Foxn1^nu/Foxn1^nu mice (Janvier Labs, Saint-Berthevin, France) were used. Animal care followed institutional guidelines and all experiments were approved by local animal research authorities. For the generation of tumor xenografts, 5 x 10^6 cells of Capan-2 cells were inoculated subcutaneously into the left and right shoulder (1:1 phosphate-buffered saline [PBS]/Matrigel Basement Membrane Matrix High Concentration, Corning, Corning, USA). Tumors were allowed to grow for two to four weeks (tumor volume > 100 mm^3) after cell inoculation.
# Radiolabeling of the DOTA-integrin αvβ6 knottin was carried out manually using [^177Lu]LuCl3 and a reagent kit from ITG Isotope Technologies Garching GmbH (Garching, Germany). A total of 40 µL (stock solution of peptide at 1 µg/µL in 10% DMSO in water) was added to 500 µL of ascorbate buffer solution pH 5.0, prepared from the kit (composition not disclosed by vendor) and the resulting mixture was then added to 35 µL of [^177Lu]LuCl3 (2 GBq in aqueous 0.04 M HCl) and the reaction mixture was heated at 80 °C for 35 minutes followed by cooling for 10 minutes at room temperature. The product was then diluted with 0.5 mL of saline and the pH was adjusted to 7 using a 1 M aqueous solution of NaHCO3 prior to injection in mice. A reverse-phase HPLC system (Knauer GmbH, Germany) with a column (Eurospher II, C18, 250 × 4 mm) was used to determine the radiochemical purity of the radiotracer. The HPLC system was equipped with an Azura P.6.1L pump coupled with ultraviolet (Azura UVD 2.1L) and radiometric (γ-Raytest-Isotopenmessgeraete GmbH, Germany) detectors. The gradient elution system used mobile phase A (100% acetonitrile) and mobile phase B (deionized H2O containing 0.1% trifluoroacetic acid) and a flow rate of 1.0 mL/min. Starting with 0% A and 100% B, the gradient was increased to 100% A over 25 min and finally returned to initial gradient conditions within 5 min.
# Tumor-bearing mice (n=4-5 per time point) were injected with approximately 1 MBq (22 pmol) of ^177Lu-DOTA-integrin αvβ6 knottin to the tail vein via a catheter. Mice (n=4-5 per time point) were sacrificed and dissected one, two, three and eight days post injection. Tumor, blood, stomach, pancreas, small intestine, colon, liver, spleen, kidney, heart, lung, muscle and femur samples were weighed and uptake of radioactivity was measured by a gamma counter.
# [1] = NMRI-Foxn1^nu/Foxn1^nu (athymic nude), colon, Colon uptake, ~1 MBq i.v.
# [2] = NMRI-Foxn1^nu/Foxn1^nu (athymic nude), liver, Liver uptake, ~1 MBq i.v.
# [3] = NMRI-Foxn1^nu/Foxn1^nu (athymic nude), small intestine, Small intestine uptake, ~1 MBq i.v.
# [4] = NMRI-Foxn1^nu/Foxn1^nu (athymic nude), spleen, Spleen uptake, ~1 MBq i.v.
# [5] = NMRI-Foxn1^nu/Foxn1^nu (athymic nude), tail, Tail activity, ~1 MBq i.v.
# [6] = NMRI-Foxn1^nu/Foxn1^nu (athymic nude), tumor, Tumor uptake, ~1 MBq (22 pmol) i.v.
# [7] = NMRI-Foxn1^nu/Foxn1^nu (athymic nude), tumor/blood
# [8] = NMRI-Foxn1^nu/Foxn1^nu (athymic nude), tumor/kidney
# [9] = NMRI-Foxn1^nu/Foxn1^nu (athymic nude), tumor/liver
# [10] = NMRI-Foxn1^nu/Foxn1^nu (athymic nude), tumor/muscle
# [11] = NMRI-Foxn1^nu/Foxn1^nu (athymic nude), tumor/pancreas
# [12] = athymic NMRI-Foxn1^nu/Foxn1^nu, blood, Blood activity, ~1 MBq i.v.
# [13] = athymic NMRI-Foxn1^nu/Foxn1^nu, femur, Femur uptake, ~1 MBq i.v.
smiles,measurement,setting,value
"CC[C@H](C)[C@@H]1NC(=O)[C@@H](NC(=O)CNC(=O)CN2CCN(CC(=O)O)CCN(CC(=O)O)CCN(CC(=O)O)CC2)CSSC[C@@H]2NC(=O)[C@H](C)NC(=O)CNC(=O)[C@@H]3CCCN3C(=O)[C@@H]3CSSC[C@@H](C(=O)NCC(=O)O)NC(=O)[C@H](Cc4ccc(O)cc4)NC(=O)CNC(=O)[C@H](CC(N)=O)NC(=O)CNC(=O)[C@H](CCCNC(=N)N)NC(=O)[C@H](CSSC[C@H](NC(=O)[C@H](CCCNC(=N)N)NC(=O)[C@H](Cc4ccccc4)NC(=O)[C@H](CC(C)C)NC(=O)[C@H](CC(C)C)NC(=O)[C@H]([C@@H](C)O)NC(=O)CNC(=O)[C@H](CC(C)C)NC(=O)[C@H](CC(=O)O)NC(=O)[C@H]([C@@H](C)O)NC(=O)[C@H](CCCNC(=N)N)NC(=O)CNC(=O)[C@H](CC(N)=O)NC(=O)[C@H](CC(C)C)NC1=O)C(=O)N[C@@H](CCCNC(=N)N)C(=O)N[C@@H](CCCNC(=N)N)C(=O)N[C@@H](CC(=O)O)C(=O)N[C@@H](CO)C(=O)N[C@@H](CC(=O)O)C(=O)N3)NC(=O)[C@H]([C@@H](C)CC)NC2=O [^177Lu-DOTA-integrin αvβ6 knottin, metal not drawn]",tissue uptake at 24 h,[1],1.37 %ID/g
same,tissue uptake at 48 h,[1],0.56 %ID/g
same,tissue uptake at 72 h,[1],0.43 %ID/g
same,tissue uptake at 192 h,[1],0.04 %ID/g
same,tissue uptake at 24 h,[2],0.24 %ID/g
same,tissue uptake at 48 h,[2],0.18 %ID/g
same,tissue uptake at 72 h,[2],0.2 %ID/g
same,tissue uptake at 192 h,[2],0.08 %ID/g
same,tissue uptake at 24 h,[3],0.76 %ID/g
same,tissue uptake at 48 h,[3],0.35 %ID/g
same,tissue uptake at 72 h,[3],0.27 %ID/g
same,tissue uptake at 192 h,[3],0.02 %ID/g
same,tissue uptake at 24 h,[4],0.06 %ID/g
same,tissue uptake at 48 h,[4],0.07 %ID/g
same,tissue uptake at 72 h,[4],0.18 %ID/g
same,tissue uptake at 72 h,[5],0.16 %ID/g
same,tissue uptake at 192 h,[5],0.08 %ID/g
same,tissue uptake at 48 h,[6],2.45 %ID/g
same,tissue uptake at 72 h,[6],3.46 %ID/g
same,tissue uptake at 192 h,[6],1.16 %ID/g
same,Kp at 24 h,[7],498
same,Kp at 48 h,[7],851
same,Kp at 72 h,[7],697
same,Kp at 192 h,[7],2120
same,tissue to tissue ratio at 24 h,[8],0.17
same,tissue to tissue ratio at 48 h,[8],0.19
same,tissue to tissue ratio at 72 h,[8],0.24
same,tissue to tissue ratio at 192 h,[8],0.51
same,tissue to tissue ratio at 24 h,[9],13
same,tissue to tissue ratio at 48 h,[9],13.6
same,tissue to tissue ratio at 72 h,[9],18.4
same,tissue to tissue ratio at 192 h,[9],14.6
same,tissue to tissue ratio at 24 h,[10],13.1
same,tissue to tissue ratio at 48 h,[10],23.1
same,tissue to tissue ratio at 72 h,[10],35.8
same,tissue to tissue ratio at 192 h,[10],32.9
same,tissue to tissue ratio at 24 h,[11],13.1
same,tissue to tissue ratio at 48 h,[11],15.6
same,tissue to tissue ratio at 72 h,[11],27
same,tissue to tissue ratio at 192 h,[11],38.7
same,tissue uptake at 24 h,[12],0.01 %ID/g
same,tissue uptake at 72 h,[12],0.01 %ID/g
same,tissue uptake at 24 h,[13],0.3 %ID/g
same,tissue uptake at 48 h,[13],0.45 %ID/g
